B1: human Rab escort protein 1 (REP1) (protein, UniProt P24386 1-653, looked up)
chain: MADTLPSEFDVIVIGTGLPESIIAAACSRSGRRVLHVDSRSYYGGNWASFSFSGLLSWLKEYQENSDIVSDSPVWQDQILENEEAIALSRKDKTIQHVEVFCYASQDLHEDVEEAGALQKNHALVTSANSTEAADSAFLPTEDESLSTMSCEMLTEQTPSSDPENALEVNGAEVTGEKENHCDDKTCVPSTSAEDMSENVPIAEDTTEQPKKNRITYSQIIKEGRRFNIDLVSKLLYSRGLLIDLLIKSNVSRYAEFKNITRILAFREGRVEQVPCSRADVFNSKQLTMVEKRMLMKFLTFCMEYEKYPDEYKGYEEITFYEYLKTQKLTPNLQYIVMHSIAMTSETASSTIDGLKATKNFLHCLGRYGNTPFLFPLYGQGELPQCFCRMCAVFGGIYCLRHSVQCLVVDKESRKCKAIIDQFGQRIISEHFLVEDSYFPENMCSRVQYRQISRAVLITDRSVLKTDSDQQISILTVPAEEPGTFAVRVIELCSSTMTCMKGTYLVHLTCTSSKTAREDLESVVQKLFVPYTEMEIENEQVEKPRILWALYFNMRDSSDISRSCYNDLPSNVYVCSGPDCGLGNDNAVKQAETLFQEICPNEDFCPPPPNPEDIILDGDSLQPEASESSAIPEANSETFKESTNLGNLEESSE

Assays:
Assay in all cases: cell-based or functional assay
[1] = target: recombinant human Rab6A (Jena Biosciences) (human) (UniProt P20340)
UniProt P20340, sequence (P20340 whole entry): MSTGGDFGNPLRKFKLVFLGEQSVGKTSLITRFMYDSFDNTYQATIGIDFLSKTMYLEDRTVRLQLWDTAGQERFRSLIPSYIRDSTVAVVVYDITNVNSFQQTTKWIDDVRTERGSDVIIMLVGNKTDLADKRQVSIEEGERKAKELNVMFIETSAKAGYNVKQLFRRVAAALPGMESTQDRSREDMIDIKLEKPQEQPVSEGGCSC

[2] = target: recombinant human Rab27A (Abnova Corporation) (human) (UniProt P51159)
UniProt P51159, sequence (P51159 whole entry): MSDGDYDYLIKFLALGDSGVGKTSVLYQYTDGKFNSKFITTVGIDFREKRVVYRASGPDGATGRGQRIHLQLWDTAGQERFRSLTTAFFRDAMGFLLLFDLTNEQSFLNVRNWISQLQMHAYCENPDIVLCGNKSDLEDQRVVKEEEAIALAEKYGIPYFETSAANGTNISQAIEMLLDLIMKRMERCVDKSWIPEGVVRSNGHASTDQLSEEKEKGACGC

[3] = target: recombinant human Rab6A (Jena Biosciences) (human) (UniProt P20340); remark: listed apart in the source

Molecule | band intensity of biotinylated Rab6a in positive controls, fold against the Rab27a data of FIG. 2 [1] [fold] | band density values of biotinylated Rab substrate, condition 4 [2] | band density values of biotinylated Rab substrate, condition 7 [2] | baseline biotin incorporation in untransduced samples (band density) [2] [a.u.] | best-fit top of the curve, biotin incorporation against MOI of rAAV2/2-REP1 (4-PL) [2] [a.u.] | band density of biotinylated substrate, fold against Rab27a in matching conditions [3] [fold] | band density values of biotinylated Rab substrate, condition 12 [3] | band density values of biotinylated Rab substrate, condition 15 [3] | baseline biotin incorporation in untransduced samples (band density) [3] [a.u.] | best-fit top of the curve, biotin incorporation against MOI of rAAV2/2-REP1 (4-PL) [3] [a.u.] | biotinylated substrate, fold against Rab27a (untransduced 293 lysate) [3] [fold] | strength of the WB signal of biotinylated Rab6a, fold against the Rab27a data of FIG. 2 (AAV-REP1 transduced cells) [3] [fold]
recombinant fish His-REP1 (Jena Biosciences) | 100 |  |  |  |  |  |  |  |  |  |  | 
B1 |  | 0.8 | 0.3 | 0.577 | 53.8 | < 2.5 | 1.8 | 0.75 | 5.01 | 92.8 | 2.5 | 10

— patent US20200341015A1
